Reference: publication PMC9710096

Legend:
Assay in all cases: SEC
[1] = biological target: SARS-CoV-2 Gamma Spike protein (P.1), tagless (SARS-CoV-2 | bacteriophage T4 (from the name T4 fibritin)) (UniProt P0DTC2)
[2] = biological target: SARS-CoV-2 Delta Spike protein (B.1.617.2), tagless (SARS-CoV-2 | bacteriophage T4 (from the name T4 fibritin)) (UniProt P0DTC2)
[3] = biological target: SARS-CoV-2 Beta Spike protein (B.1.351), tagless (SARS-CoV-2 | bacteriophage T4 (from the name T4 fibritin)) (UniProt P0DTC2)
[4] = biological target: SARS-CoV-2 D614G Spike protein, tagless (SARS-CoV-2 | bacteriophage T4 (from the name T4 fibritin)) (UniProt P0DTC2)

“SARS-CoV-2 Gamma Spike protein (P.1), tagless (from UniProt P0DTC2 1-1208) (natural protein)” gave a stoichiometry N [1] of 3.
In the case of “SARS-CoV-2 Delta Spike protein (B.1.617.2), tagless (from UniProt P0DTC2 1-1208) (natural protein)”, the stoichiometry N [2] is reported as 3.
With “SARS-CoV-2 Beta Spike protein (B.1.351), tagless (from UniProt P0DTC2 1-1208) (natural protein)” the stoichiometry N [3] was 3.
In the case of “SARS-CoV-2 D614G Spike protein, tagless (from UniProt P0DTC2 1-1208) (natural protein)”, the stoichiometry N [4] is reported as 3.
